This is an account of results in US20260184748A1 (University of Pennsylvania, published 2026).

Assay in all cases: cell-based or functional assay
For test [1], the target named is T1, AGTRL1 (UniProt P35414 1-380).
T1 sequence (looked up): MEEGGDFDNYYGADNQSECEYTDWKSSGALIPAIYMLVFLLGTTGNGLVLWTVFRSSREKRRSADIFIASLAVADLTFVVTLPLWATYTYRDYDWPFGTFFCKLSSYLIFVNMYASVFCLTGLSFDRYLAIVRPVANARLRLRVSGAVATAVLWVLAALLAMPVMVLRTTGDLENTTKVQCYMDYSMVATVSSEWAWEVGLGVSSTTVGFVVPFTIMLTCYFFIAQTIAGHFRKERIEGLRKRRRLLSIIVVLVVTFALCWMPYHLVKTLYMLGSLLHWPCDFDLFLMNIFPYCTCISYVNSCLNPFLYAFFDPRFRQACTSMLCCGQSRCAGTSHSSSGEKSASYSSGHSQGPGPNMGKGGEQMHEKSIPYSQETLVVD

Test [2] concerns the target CXCR6 (UniProt O00574 1-342).
In test [3] the target is T2, F2RL3 (UniProt Q96RI0 18-385, limits assumed).
T2 sequence (looked up): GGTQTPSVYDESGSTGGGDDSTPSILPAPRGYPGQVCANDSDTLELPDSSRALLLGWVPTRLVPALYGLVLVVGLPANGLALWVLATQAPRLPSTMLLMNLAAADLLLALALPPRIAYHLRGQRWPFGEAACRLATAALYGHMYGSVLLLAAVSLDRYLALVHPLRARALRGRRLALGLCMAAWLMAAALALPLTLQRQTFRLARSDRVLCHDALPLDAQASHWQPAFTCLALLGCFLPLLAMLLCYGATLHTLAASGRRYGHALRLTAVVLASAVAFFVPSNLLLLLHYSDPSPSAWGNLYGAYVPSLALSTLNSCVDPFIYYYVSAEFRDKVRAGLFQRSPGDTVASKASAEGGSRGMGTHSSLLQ

Test [4] concerns the target T3, ADRA1B (UniProt P35368 1-520).
T3 sequence (looked up): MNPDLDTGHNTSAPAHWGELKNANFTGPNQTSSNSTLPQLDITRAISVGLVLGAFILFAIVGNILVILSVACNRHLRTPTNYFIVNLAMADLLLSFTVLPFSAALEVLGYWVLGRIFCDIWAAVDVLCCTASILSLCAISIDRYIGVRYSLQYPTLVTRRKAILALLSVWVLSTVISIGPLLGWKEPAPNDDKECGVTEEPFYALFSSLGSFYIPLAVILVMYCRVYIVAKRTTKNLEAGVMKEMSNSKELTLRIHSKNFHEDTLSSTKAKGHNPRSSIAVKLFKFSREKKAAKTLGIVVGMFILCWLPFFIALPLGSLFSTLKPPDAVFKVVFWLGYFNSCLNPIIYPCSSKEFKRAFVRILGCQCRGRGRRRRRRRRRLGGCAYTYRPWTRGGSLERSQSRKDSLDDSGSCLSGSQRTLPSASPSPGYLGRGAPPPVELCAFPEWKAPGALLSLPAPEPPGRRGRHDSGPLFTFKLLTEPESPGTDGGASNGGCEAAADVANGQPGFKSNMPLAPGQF

Test [5] concerns the target GCGR (UniProt P47871 26-477).
For test [6], the target named is OPRD1 (UniProt P41143 1-372).
Chain of OPRD1 (P41143 whole entry): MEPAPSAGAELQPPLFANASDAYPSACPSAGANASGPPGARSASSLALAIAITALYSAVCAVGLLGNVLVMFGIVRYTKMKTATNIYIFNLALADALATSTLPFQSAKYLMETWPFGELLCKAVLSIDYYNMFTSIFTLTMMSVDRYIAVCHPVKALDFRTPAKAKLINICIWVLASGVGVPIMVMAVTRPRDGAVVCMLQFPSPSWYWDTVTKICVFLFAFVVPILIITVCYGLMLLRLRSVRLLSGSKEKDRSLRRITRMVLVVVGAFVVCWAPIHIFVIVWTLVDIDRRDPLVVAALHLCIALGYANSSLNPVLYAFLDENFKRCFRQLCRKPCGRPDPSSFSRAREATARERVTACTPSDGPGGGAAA
Test [7] concerns the target T4, ADCYAP1R1 (UniProt P41586 21-468, limits assumed).
T4 sequence (looked up): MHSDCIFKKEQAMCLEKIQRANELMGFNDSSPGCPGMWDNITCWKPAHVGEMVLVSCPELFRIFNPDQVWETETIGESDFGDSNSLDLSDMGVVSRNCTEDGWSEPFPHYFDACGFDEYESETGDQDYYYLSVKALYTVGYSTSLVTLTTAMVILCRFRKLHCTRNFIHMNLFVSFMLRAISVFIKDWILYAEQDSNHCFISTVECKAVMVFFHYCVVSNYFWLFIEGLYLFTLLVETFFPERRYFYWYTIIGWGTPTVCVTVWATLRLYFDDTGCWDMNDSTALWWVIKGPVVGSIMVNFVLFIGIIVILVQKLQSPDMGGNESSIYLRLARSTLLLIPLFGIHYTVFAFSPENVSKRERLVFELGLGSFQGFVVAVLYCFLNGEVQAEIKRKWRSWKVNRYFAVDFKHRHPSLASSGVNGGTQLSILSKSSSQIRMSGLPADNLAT

Test [8] has as its target NMBR (UniProt P28336 1-390).
Test [9] has as its target T5, OXTR (UniProt P30559 1-389).
T5 sequence (looked up): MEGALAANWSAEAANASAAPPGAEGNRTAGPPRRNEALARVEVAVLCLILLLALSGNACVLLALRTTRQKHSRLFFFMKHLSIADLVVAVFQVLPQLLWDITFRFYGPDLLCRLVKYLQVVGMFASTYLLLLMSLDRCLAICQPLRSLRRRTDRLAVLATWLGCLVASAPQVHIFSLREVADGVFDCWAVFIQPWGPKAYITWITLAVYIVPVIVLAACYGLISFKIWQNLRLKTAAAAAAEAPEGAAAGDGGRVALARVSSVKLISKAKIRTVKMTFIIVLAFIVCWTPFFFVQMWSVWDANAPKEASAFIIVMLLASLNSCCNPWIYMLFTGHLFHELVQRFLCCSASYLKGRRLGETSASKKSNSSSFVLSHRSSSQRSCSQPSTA

For test [10], the target named is T6, TACR3 (UniProt P29371 1-465).
T6 sequence (looked up): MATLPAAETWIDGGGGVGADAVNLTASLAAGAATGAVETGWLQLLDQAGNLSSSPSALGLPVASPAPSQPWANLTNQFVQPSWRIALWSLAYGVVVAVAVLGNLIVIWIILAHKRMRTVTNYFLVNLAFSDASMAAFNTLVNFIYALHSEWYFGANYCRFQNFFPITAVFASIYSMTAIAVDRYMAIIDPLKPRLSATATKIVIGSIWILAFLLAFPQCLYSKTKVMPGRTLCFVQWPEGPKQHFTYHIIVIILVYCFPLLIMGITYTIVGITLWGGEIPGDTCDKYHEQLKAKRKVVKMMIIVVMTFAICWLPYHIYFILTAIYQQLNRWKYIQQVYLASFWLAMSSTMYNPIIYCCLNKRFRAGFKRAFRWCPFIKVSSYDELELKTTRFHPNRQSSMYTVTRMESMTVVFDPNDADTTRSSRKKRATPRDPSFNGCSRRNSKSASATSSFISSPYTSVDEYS

Where no end group is shown, it is not given here.

Chain of CXCR6 (O00574 whole entry): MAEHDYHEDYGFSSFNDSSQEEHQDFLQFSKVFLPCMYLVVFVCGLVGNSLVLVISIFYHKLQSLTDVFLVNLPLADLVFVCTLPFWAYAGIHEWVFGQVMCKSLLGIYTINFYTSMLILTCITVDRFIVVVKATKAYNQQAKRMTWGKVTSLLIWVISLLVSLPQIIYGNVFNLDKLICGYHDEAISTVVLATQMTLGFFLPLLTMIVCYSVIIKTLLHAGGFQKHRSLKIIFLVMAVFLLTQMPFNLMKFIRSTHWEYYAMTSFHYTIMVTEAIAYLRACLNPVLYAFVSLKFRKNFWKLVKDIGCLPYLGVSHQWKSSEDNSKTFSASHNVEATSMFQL
Chain of NMBR (P28336 whole entry): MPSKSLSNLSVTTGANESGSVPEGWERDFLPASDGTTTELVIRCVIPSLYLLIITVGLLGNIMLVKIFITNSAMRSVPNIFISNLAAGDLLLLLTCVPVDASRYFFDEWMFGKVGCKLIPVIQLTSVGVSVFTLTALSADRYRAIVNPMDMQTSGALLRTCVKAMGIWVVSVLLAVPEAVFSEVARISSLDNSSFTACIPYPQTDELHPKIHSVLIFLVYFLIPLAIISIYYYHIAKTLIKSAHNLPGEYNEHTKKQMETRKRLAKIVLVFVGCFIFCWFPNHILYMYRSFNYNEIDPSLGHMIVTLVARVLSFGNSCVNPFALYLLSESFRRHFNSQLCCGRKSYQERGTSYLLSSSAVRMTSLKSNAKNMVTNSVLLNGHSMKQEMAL

B1: octadecaneuropeptide (ODN) (peptide)
peptide: QATVGDVNTDRPGLLDLK
modifications: also: synthesised on Rink amide resin, C-terminal amide not given here outright
As for B1, the “% Activity, arrestin, antagonist mode, 2.5 uM” value in test [1] is -23.4%; in test [2], -1.3%; in test [3], -25.9%; in test [4], 0.1%; in [5], -17.2%; in test [6] it was 10%. Further, the “% Activity, arrestin, antagonist mode, 2.5 uM” value is 0.9% in test [7], -7.7% in [8], 1.3% in [9] and -5.8% in test [10].
